B1: ING2 promoter putative NF-kB site (dsDNA)
DNA 1: CGCCGAGGGGATCCCCACTGCT
DNA 2: AGCAGTGGGGATCCCCTCGGCG
B2: NF-kB consensus (dsDNA)
DNA 1: AGTTGAGGGGACTTTCCCAGGC
DNA 2: GCCTGGGAAAGTCCCCTCAACT

Target: NF-kB p50 (UniProt P19838 1-433)
Experiment: EMSA

NF-kB p50, sequence (P19838 1-433): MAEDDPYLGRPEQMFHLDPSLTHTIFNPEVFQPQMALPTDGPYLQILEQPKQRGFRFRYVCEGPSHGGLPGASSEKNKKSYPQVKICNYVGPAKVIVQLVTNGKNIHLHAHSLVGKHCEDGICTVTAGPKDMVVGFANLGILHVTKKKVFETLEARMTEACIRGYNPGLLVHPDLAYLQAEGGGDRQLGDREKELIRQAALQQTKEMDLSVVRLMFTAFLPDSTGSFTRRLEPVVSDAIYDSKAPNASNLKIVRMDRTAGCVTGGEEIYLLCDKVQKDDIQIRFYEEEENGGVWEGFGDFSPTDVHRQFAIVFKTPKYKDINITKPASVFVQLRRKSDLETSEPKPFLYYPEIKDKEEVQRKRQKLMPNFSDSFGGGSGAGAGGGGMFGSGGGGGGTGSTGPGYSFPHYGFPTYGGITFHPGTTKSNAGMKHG

Row | Binder | binding result
1 | B1 | binds
2 | B2 | binds

Source: article PMC2790157
